Legend:
[1] = target: T1, murine FAP (murine, UniProt P97321 27-761); assay: SPR (Biacore), simultaneous binding
T1 construct: also called mouse FAP

[2] = target: T2, human Fibroblast Activation Protein (FAP) (human, UniProt Q12884 27-760); assay: SPR (Biacore), simultaneous binding
T2 construct: also called recombinant human FAP; Seprase

[3] = target: T2, human Fibroblast Activation Protein …; assay: Affinity human [nM], IgG format; method not stated

T2 sequence (Q12884 27-760 limits assumed): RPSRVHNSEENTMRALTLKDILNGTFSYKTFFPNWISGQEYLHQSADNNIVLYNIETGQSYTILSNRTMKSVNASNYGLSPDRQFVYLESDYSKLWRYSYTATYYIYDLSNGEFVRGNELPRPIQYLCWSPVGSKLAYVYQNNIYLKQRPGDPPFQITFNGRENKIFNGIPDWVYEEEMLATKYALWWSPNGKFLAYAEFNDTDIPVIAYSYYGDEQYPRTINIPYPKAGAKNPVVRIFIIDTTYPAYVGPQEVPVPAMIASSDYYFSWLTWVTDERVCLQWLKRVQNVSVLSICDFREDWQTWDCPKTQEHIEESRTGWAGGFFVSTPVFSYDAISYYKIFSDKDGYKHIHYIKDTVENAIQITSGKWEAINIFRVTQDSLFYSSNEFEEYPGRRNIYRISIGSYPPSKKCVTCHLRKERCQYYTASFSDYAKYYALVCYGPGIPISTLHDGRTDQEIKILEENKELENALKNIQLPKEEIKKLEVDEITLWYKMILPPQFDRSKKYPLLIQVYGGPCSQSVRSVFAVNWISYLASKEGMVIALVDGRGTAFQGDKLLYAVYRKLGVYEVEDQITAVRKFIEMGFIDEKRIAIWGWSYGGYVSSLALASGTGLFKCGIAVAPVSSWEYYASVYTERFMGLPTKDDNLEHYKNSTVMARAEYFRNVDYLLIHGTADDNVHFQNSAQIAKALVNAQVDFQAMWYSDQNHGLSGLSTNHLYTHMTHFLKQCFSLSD
T1 sequence (P97321 27-761 limits assumed): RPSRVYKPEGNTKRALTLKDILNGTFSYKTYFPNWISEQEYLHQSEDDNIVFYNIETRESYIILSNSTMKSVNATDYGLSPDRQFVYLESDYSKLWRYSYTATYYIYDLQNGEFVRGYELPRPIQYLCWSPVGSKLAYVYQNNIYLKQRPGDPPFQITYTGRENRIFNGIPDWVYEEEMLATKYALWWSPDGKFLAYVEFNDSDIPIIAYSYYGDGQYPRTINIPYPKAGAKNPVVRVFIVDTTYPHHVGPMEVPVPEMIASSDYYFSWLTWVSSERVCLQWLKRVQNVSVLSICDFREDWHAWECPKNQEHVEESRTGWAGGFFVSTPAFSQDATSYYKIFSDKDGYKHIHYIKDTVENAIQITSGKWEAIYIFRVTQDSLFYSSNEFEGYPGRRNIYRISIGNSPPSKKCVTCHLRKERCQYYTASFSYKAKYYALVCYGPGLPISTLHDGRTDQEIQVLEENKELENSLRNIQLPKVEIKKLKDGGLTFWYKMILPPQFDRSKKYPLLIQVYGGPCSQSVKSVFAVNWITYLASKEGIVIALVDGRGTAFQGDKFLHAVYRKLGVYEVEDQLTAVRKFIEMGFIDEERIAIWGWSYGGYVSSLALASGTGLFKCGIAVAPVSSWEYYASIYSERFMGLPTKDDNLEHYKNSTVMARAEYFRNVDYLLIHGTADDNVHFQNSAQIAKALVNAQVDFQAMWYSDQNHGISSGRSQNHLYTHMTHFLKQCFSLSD

| binding result [1] | binding result [2] | Kd [3] [nM] | Binder |
| --- | --- | --- | --- |
| binds | binds | – | DR5(5E11)-28H1 VHCL 2+2 (bispecific antibody, human IgG1, kappa, 28H1 CrossFab domain (VHCL) fused to the C-terminus of the anti-DR5 (5E11) heavy chain by a (G4S)4 connector; also called DR5-FAP bispecific antibody; bispecific, tetravalent DR5-FAP CrossMab molecule) heavy: not shown light: EIVLTQSPGTLSLSPGERATLSCRASQSVSSSYLAWYQQKPGQAPRLLIYGASSRATGIPDRFSGSGSGTDFTLTISRLEPEDFAVYYCQQGTTHPITFGQGTKVEIKRTVAAPSVFIFPPSDEQLKSGTASVVCLLNNFYPREAKVQWKVDNALQSGNSQESVTEQDSKDSTYSLSSTLTLSKADYEKHKVYACEVTHQGLSSPVTKSFNRGEC EIVLTQSPGTLSLSPGERATLSCRASQSVSRSYLAWYQQKPGQAPRLLIIGASTRATGIPDRFSGSGSGTDFTLTISRLEPEDFAVYYCQQGQVIPPTFGQGTKVEIKSSASTKGPSVFPLAPSSKSTSGGTAALGCLVKDYFPEPVTVSWNSGALTSGVHTFPAVLQSSGLYSLSSVVTVPSSSLGTQTYICNVNHKPSNTKVDKKVEPKSCD |
| binds | binds | – | DR5(5E11)-28H1 VHCL 2+2 P329GLALA (bispecific antibody, human IgG1, kappa, L234A L235A, As DR5(5E11)-28H1 VHCL 2+2, with removal of the C-terminal lysine and the P329G/LALA mutation in Fc; also called DR5-FAP bispecific antibody; bispecific, tetravalent DR5-FAP CrossMab molecule) heavy: not shown light: EIVLTQSPGTLSLSPGERATLSCRASQSVSSSYLAWYQQKPGQAPRLLIYGASSRATGIPDRFSGSGSGTDFTLTISRLEPEDFAVYYCQQGTTHPITFGQGTKVEIKRTVAAPSVFIFPPSDEQLKSGTASVVCLLNNFYPREAKVQWKVDNALQSGNSQESVTEQDSKDSTYSLSSTLTLSKADYEKHKVYACEVTHQGLSSPVTKSFNRGEC EIVLTQSPGTLSLSPGERATLSCRASQSVSRSYLAWYQQKPGQAPRLLIIGASTRATGIPDRFSGSGSGTDFTLTISRLEPEDFAVYYCQQGQVIPPTFGQGTKVEIKSSASTKGPSVFPLAPSSKSTSGGTAALGCLVKDYFPEPVTVSWNSGALTSGVHTFPAVLQSSGLYSLSSVVTVPSSSLGTQTYICNVNHKPSNTKVDKKVEPKSCD |
| – | – | 2.6 | FAP binder 28H1 (IgG) (antibody, V domains shown, also called FAP(28H1)) VH: EVQLLESGGGLVQPGGSLRLSCAASGFTFSSHAMSWVRQAPGKGLEWVSAIWASGEQYYADSVKGRFTISRDNSKNTLYLQMNSLRAEDTAVYYCAKGWLGNFDYWGQGTLVTVSS VL: EIVLTQSPGTLSLSPGERATLSCRASQSVSRSYLAWYQQKPGQAPRLLIIGASTRATGIPDRFSGSGSGTDFTLTISRLEPEDFAVYYCQQGQVIPPTFGQGTKVEIK |

From patent US20180064808A1 (Hoffmann-La Roche, published 2018)
